The text below walks through data of the nanobody polyreactivity screen of Harvey et al. (2022).

The nature of the data set: yeast display, Sf9 membrane polyspecificity reagent, FACS + sequencing; frameworks hold sequencing errors. In a few lines: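 Synthetic nanobody libraries on Saccharomyces cerevisiae BJ5465 were galactose-induced for 36–48 hours, stained 1 hour at 4 °C with 10% biotinylated, detergent-solubilized Sf9 membrane reagent and enriched on streptavidin microbeads. FACS then separated cells into low and high (top ~1%) gates by anti-HA (expression) and streptavidin (reagent binding) fluorescence. Genes were colony-PCR amplified, MiSeq 2 × 250 sequenced and CDR-length filtered. A clone's polyreactivity label is that of its gate of origin.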
As to “QVQLKESGGGLVQAGGSLRLSCAASGNIVDADIMGWYRQAPGKERELVASITDGGSTNYADSVKGRFTISRDNAKNTVYLQMNSLKPEDTAVYYCAAIAYPDIPTYFDYDSEYFYWGQGTQVTVSS”, the “polyreactivity (PSR sort gate)” value was “low polyreactivity”.
Consider “QVQLVESGGGLVQAGGSLRLSCAASGFIYSRYAMGWYRQAPRKEMDFFAAISRNGGSTYYADSVKGRITISRDNAKNTVYLQMNSLKPDDTAVYYCIAPYFVTSTYANTLGFDYWGQGTQVTVSS”, for which the “polyreactivity (PSR sort gate)” value is reported as “high polyreactivity”.
In the case of “QVQLVESGGGLVQAGGSLRLSCAASGRTFNYYAMGWYRQAPGKERELVAAISWSGTPTYYADSVKGRFTISRDNAKNTVYLQMNSLKPEDTAVYYCAAGYNYTSYADLDYWGQGTQVTVSS”, the “polyreactivity (PSR sort gate)” value is on record as “low polyreactivity”.
As to “QVQLVESGGGLVQAGGSLRLSCAASGNTFYLYAMGWYRQAPGKERELVASITGGTRTNYADSVKGRFTISRDNAKNTVYLQMNSLKPEDTAVYYCAKTYPRTVGKYLSRGGYYYWGQGTQVTVSS”, the “polyreactivity (PSR sort gate)” value is listed as “high polyreactivity”.
Regarding “QVQLVESGGGLVQAGGSLRLSCAASGGNFKQYAMGWYRQAPGKERELVAAISRRGGSTYYADSVKGRFTISRDNAKNTVYLQMNSLKPEDTAVYYCAAPGPTQSTQRGGYWGQGTQVTVSS”, the “polyreactivity (PSR sort gate)” value is on record as “high polyreactivity”.
“QVQLVESGGGLVQAGGRLRLSCAASGGTFYLIAMGWYIQAPGKERELVAAISGSGTSTYYADSVKGRFTISRDNAKNTVYLQMNSLKPEDTAVYYCAADGTYFYIYLGDRFDYWGQGTQVTVSS”: the “polyreactivity (PSR sort gate)” value was “low polyreactivity”.
The entry for “QVQLVESGGGLVQAGGSLRLSCAASGRTFWYYAMGWYRQAPGKEREFVAAISWSGGSTYYADSVKGRFTISRDNAKNTVYFQMNSLKPEDTAVYYCNAGNYRDKSYYWGQGTQVTVSS” is “low polyreactivity”; for “QVQLVESGGGLVQAGGSLRLSCAASGSTFVLYAMGWYRQAPGKERELVAAIDSSGGSTYYADSVKGRFTISRDNAKNTVYLQMNSLKPEDTAVYYCAKAGRYANLPYGYWGQGTQVTVSS” it is “high polyreactivity”; for “QVQLVESGGGLVQAGGSLRLSCAASGRTLGVYAMGWSRQAPGKERELVAAIRYRGGITYYADSVKGRFTISRDNAKNTVYLQMNSLKPEDTAVYYCAADWAWDTKSAPAYPRAYDYWGQGTQVTVSS” it is “low polyreactivity”.
For the sequence “QVQLQESGGGQVQAGGSLRLSCAASGYISTHYFMGWYRQATGKDREFVAGISNGSITNYADSVKGRFTISRDNARNTVYLQMNSLKPEDTAVYYGAAYEWTYVRFGYWGQGTQVTVSG”, the “polyreactivity (PSR sort gate)” value is reported as “high polyreactivity”.
As to “QVQLVQSGGGLVQAGGSLRLSCAASGRIFRTYAMGWYRQAPGKERELVAAISSRSGSTYYADSVKGRFTISRDNAKNTVYLQMQSLKPEDTAVYYCASRYGYRYADKGSEYGYWGQGTLVTVSS”, the “polyreactivity (PSR sort gate)” value is “high polyreactivity”.
On to “QVQLVESGGGLVQAGGSLRLSCAASGRIFQGYAKGWYRQAPGKERELVAAIRTGGSTNYADSVKGRFTISRDNAKNTVYLQMNSLKPEDTAVYYCNAVGQLYFYFPRGDYWGQGTQVTVSS”, for which the “polyreactivity (PSR sort gate)” value is given as “low polyreactivity”.
As for “QVQLVESGGGLVQAGGSLRLSCAASGRTFGQYAMGLYRQAPGKERELVAAITTRGGSTYYADSVKGRFTISRDNAKNTVYLQMNSLKPEDTAVYYCNADYPVKRRRGRDYWGQGTQVTVSS”, the “polyreactivity (PSR sort gate)” value was “high polyreactivity”.
For “QVQLVESGGGLVQAGGSLRLSCAASGRIFRRYAMGWYRQAPGKEREFVAAITWSGSSTYYADSVKGRFTISRDNAKNTVYLQMNSLKPEDTAVYYCAARHYAVRRSRYPGKLGYYWGQGTQVTVSS”, the “polyreactivity (PSR sort gate)” value is listed as “high polyreactivity”.
For the sequence “QVQLLESGGGLVQAGGSLRLSCAASGSTFYYYAMGWYRQAPGKERELVAAITSGGRTYYADSQKGRFTNSRDNAKNTVYLQMNSLKPEDTAVYYSNKRWTIWGYDYWAQGTQVTVSS”, the “polyreactivity (PSR sort gate)” value is listed as “high polyreactivity”.
“QVQLVESGGGLVQAGGSLRLSCAASGSTFSKYAMGWYRQAPWKESELVASITWSGGSTYYADSVKGRFTISRDNAKNTVYLQMNSLIPEDTAVYYCNVRTIQYNVGRWWEYDYWGQVTQVTVSS”: the “polyreactivity (PSR sort gate)” value is on record as “low polyreactivity”.
Regarding “QVQLVESGGGLVQAGGSLRLSCAASGRIFSHYAMGWYRQAPGKERELVASITRGGTRTYADSVKGRFTISRDNAKNTVYLQMNSLKPEDSAVYYCAADGYAYYYEWSQGDLSYDHWGQVTQVTVSS”, the “polyreactivity (PSR sort gate)” value is “low polyreactivity”.
The entry for “LVQLVESGGGLVQAGGSLRLSFAASGLIFGRYAMGWYTQAPGKERELVAAISSSGVRTYYADSVKGRFTLSRDNAKNTVYLQLNSLKPEDTAVYYCAAAYWSSPEDTVIKRYYWGQGTQVTVSS” is “high polyreactivity”; for “QVQLVESGGGLVQAGGSLRLSCAASGSTFVTNDMGWSRQAPGKERELVAAISSGTSTNYAYSVKGRFTISRDNAKNTVYLQMNSQKPEDTAVYYCAADSLKRYDYWGQGTQVTVSS” it is “low polyreactivity”; for “QVQLVESGGGLVHAGGSLRLSCAASGSIFGTNAMGWYRQAPGQERELVAAISYSGGSTYYADSVKGRFTISRDPAKNTVYLQMNSLKPDDTAVYYCAKVVRYWWERDYWGKGTQVTVSS” it is “high polyreactivity”.
As to “QGQRVESGGVLVQAGGSLRLRCAASGSTFSRYDMGWYRQAPGKERELVATITRAGRTYYADSVKGRFTISRDNAKNTVYLQMNSLIPEDTAVYYCAAELYYWTYVRFDYWGQGTQVTVSS”, the “polyreactivity (PSR sort gate)” value was “low polyreactivity”.
In the case of “QVQLVESGGGLDQAAGSLRLTCAASGTTFEYYAMGLYRQAPAKEREFVAAITGSGASTYYADSVKGRFTISRDNAKNTVYLQMNSLKPEDTAVYYCIALSALAVEDGYWGQGTQVTVSS”, the “polyreactivity (PSR sort gate)” value is recorded as “low polyreactivity”.
In the case of “QVQLVESGGGLVQAGGSLRLSCAASGFIFGVYAMGWYRQAPGKERELVARITYGGGSTYYADSVKGRFTISRDNAKNTVYLQMNSLKPEDTAVYYCAAASWSYPYYYWGQGTQVTVSS”, the “polyreactivity (PSR sort gate)” value is reported as “high polyreactivity”.
To “QVQLVESGGGLVQAGGSLRLSCAASGRTVNAMGWYRQAPGKERELVAAINSGTSTYADSVKGRFTISRDNAKNTVYLQMNSLKPEDTAVYYCAKTYFWPFHGRFVGYDYWGQGTQVTVSS” belongs “low polyreactivity”.
For the sequence “QVQLVESGGGLVQAGGSLRLSCAASGSTFFWYAMGWYRQEPGKERELVAAINWRGDRTYYADSVKGRFTISRDNAKNTVYLQMNSLKPEDTAVYYCNAVRVHAYSTGEYGYWGQGTQVTVSS”, the “polyreactivity (PSR sort gate)” value is recorded as “high polyreactivity”.
In the case of “QVQLVESGGGLVQAGGSLRLSCAASGITFGVNTMGWYRQAPGKERELVAAITWRGGSTYYADSVKGRFTISRDNAKNTVYLQMNSLKPEDTAVYYCAAQPIWPGGQELDYWGQGTQVTVSS”, the “polyreactivity (PSR sort gate)” value is recorded as “low polyreactivity”.
On to “QVQLVESGGGLVQAGGSLRLSCAASGRMFFRYAMGCYRQAPGKEREFVATITWSGGRTHYADSVKGRFTISRDNAKNTVYLQMNSLKPEDTAVYYCAASYHRYAFDYWGQGTQVTVSS”, for which the “polyreactivity (PSR sort gate)” value is reported as “high polyreactivity”.
Consider “QVQLVESGGGIVQAGGSLRLSCAASGGTFSRNAMGWYRQAPGKERELVAAINSSGVSTSYADSVKGRFTISRDNEKNTVYLQMNSLKPEDTAVYYCAAETSSAEVDYWGQGTQVTVSS”, for which the “polyreactivity (PSR sort gate)” value is on record as “low polyreactivity”.
The entry for “QVQHVESGGGLVQARGSLRLSCSASGVIFYNYAMGWSRQAPGKEREFVAAISGSGGSTYYADSVKGRFTISRDNAKNTVYLQMNSLKPEDTAVYYCAVRQRYGPARYDYWGQGTQVTVSS” is “high polyreactivity”; for “QVQLVESGGGLVQAGGSLRLSCAASGRTFSRNAMGWYRQAPGKERELVAAISDGGGSTYYADSVKGRFTISRDNAKNPVYLQMNILKPEDTAVYYCAARVLDWRGDIHDSEYWGHGTQVTVSS” it is “low polyreactivity”; for “QVQFVESGGGLVQAGGSLRLSCAASGSTFQGNAMGWYRQAPGKERELVAAISRSGGRTYYADSVKGRFTISRDNAKNTVYLQMNSLKPEDTAVYYCAADAYTGDIPYWWPWNNEYDYWGQGTQVTVSS” it is “low polyreactivity”.
To “QVQLVESGGGLVQAGGSLRLSCAASGSTSRGYAMGWYRQAPGEERELVASITLSGGNTYYADSVKGRFTISRDNAKNTVYLQMNSLKPEDTAVYYCAADDRGSSYGHFTVEYGYWGQGTQVTVSS” belongs “low polyreactivity”; to “QVQLVESGGGLVQAGGSLRLSCAASGRIFTYYGMGWYRQAPGKERELVAAISWSGGSTYYADSVKGRFTISRDNAKNTVYLQMNSLKPEDTAVYYCNAASRYGGDYWGQGTQVTVSS”, “high polyreactivity”; to “QVQLEESGGGLVQAGGSLRLSCAGSGNIFPSYALGWYRQAPGKERELVAAITYSAVSTYYADSVKGRFTISRDNAKNTVYLQMNSLKPEDTAVYYCAKETTEVPGVGSQEMDFWGQGTQVTVSS”, “low polyreactivity”.
Regarding “QVQLVESGGGLVQAGGSLRLSCAASGRTFRSDNAMGWYRQAPGKERELVAAISQGGGTYYADSVKGRFTISRDNAKNTVYLQMNSLKPEDTAVYYCARDAYYADPSLWYYTYDYWGQGTQVNVSS”, the “polyreactivity (PSR sort gate)” value was “low polyreactivity”.
Take “QVHLVESGGGLVQAGGSLRLSCDASGLTFANNAMGWYRQAPGKEREFVAAIRGSGGSTYYADSVKGRFTISRDNAKNTVYLQMNSLKPEDTAVYYCNAGYLRKYHGWFQVKFDYWGQGTQVTVSS”: the “polyreactivity (PSR sort gate)” value was “low polyreactivity”.
For “QVQLVESGGGLVQAGGSLRLSCAASGSLFIANAMGWYRQAPGKERELVAAISWSGGRTYYADSVKGRFTISRDNAKNTVYLQMNSLKPEDTAVYYCAAEWEFYYEYDYWGQGTQVTVSS”, the “polyreactivity (PSR sort gate)” value is “high polyreactivity”.
Turning to “QVQLVESGGGIDQAGGSLRLRCAASGSIFAYYAMGWYRQAPGKERELVAAISWNGGRTYYADSVKGRFTISRDNAKNTVYLQMNSLKPEDTAVYYCNAVRWAIYDYWGQGTQVTLSS”, the “polyreactivity (PSR sort gate)” value was “high polyreactivity”.
Consider “QVQLVESGGGLVQAGGSLRLSCAASGSTISRNAMGWSRQAPGKERELVAAISWRGGRTYYADSVKGRFTISRDNAKNTVYLQMNSLKPEDTAVYYCAAEHKYRYDYWGQGTQVTVSS”, for which the “polyreactivity (PSR sort gate)” value was “low polyreactivity”.
With “QVHLVESGGGLVQAGGSLRLSCAASGSTFAYNAMGWYRTAPGKERELVAAISSSGGRTYYADSVKGRFTLSRDNAKNTVYLQMISLKPEDTAVYYCNAAYYYTYGYWGQGTEVTVSS”, the “polyreactivity (PSR sort gate)” value is “high polyreactivity”.
